Experimental data: publication PMC10397247
Read-outs that look alike come from different tables or passages of the source.

T1: P2-AA-12HAA-D
T1 chain: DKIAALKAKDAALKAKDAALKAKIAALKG

T2: P2-AA-12HAA-E
T2 chain: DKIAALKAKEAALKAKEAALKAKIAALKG

T3: P2-AA-12HAA-H
T3 chain: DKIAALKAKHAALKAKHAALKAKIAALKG

T4: P2-AA-12HAA-I
T4 chain: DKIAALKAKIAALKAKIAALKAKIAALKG

T5: P2-AA-12HAA-K
T5 chain: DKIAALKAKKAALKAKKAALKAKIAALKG

T6: P2-AA-12HAA-L
T6 chain: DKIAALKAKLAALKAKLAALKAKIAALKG

T7: P2-AA-12HAA-R
T7 chain: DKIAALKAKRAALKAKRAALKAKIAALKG

T8: P2-AA-12HAA-S
T8 chain: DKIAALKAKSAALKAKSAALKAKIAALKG

T9: P2-AA-12HAA-T
T9 chain: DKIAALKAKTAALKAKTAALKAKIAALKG

T10: P2-AA-12HAA-V
T10 chain: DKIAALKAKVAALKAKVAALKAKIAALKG

T11: P2-AA-12HAA-Y
T11 chain: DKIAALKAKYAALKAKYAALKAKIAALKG

T12: P2-AA
T12 chain: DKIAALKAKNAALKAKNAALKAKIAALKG


Legend:
Assay in all cases: two-hybrid library CCmax;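 also: natural log of median RNA to DNA barcode read ratio; higher means stronger binding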
P2-AA-12HAA-D = target: T1, P2-AA-12HAA-D; settings: mean of both orientations
P2-AA-12HAA-E = target: T2, P2-AA-12HAA-E
P2-AA-12HAA-H = target: T3, P2-AA-12HAA-H
P2-AA-12HAA-I = target: T4, P2-AA-12HAA-I; settings: mean of both orientations
P2-AA-12HAA-K = target: T5, P2-AA-12HAA-K; settings: mean of both orientations
P2-AA-12HAA-L = target: T6, P2-AA-12HAA-L; settings: mean of both orientations
P2-AA-12HAA-R = target: T7, P2-AA-12HAA-R
P2-AA-12HAA-S = target: T8, P2-AA-12HAA-S
P2-AA-12HAA-T = target: T9, P2-AA-12HAA-T; settings: mean of both orientations
P2-AA-12HAA-V = target: T10, P2-AA-12HAA-V; settings: mean of both orientations
P2-AA-12HAA-Y = target: T11, P2-AA-12HAA-Y; settings: mean of both orientations
P2-AA = target: T12, P2-AA; settings: mean of both orientations

Binder	interaction score (P2-AA-12HAA-D)	interaction score (P2-AA-12HAA-E; mean of both orientations)	interaction score (P2-AA-12HAA-H; mean of both orientations)	interaction score (P2-AA-12HAA-I)	interaction score (P2-AA-12HAA-K)	interaction score (P2-AA-12HAA-L)	interaction score (P2-AA-12HAA-R; mean of both orientations)	interaction score (P2-AA-12HAA-S; mean of both orientations)	interaction score (P2-AA-12HAA-T)	interaction score (P2-AA-12HAA-V)	interaction score (P2-AA-12HAA-Y)	interaction score (P2-AA)	interaction score (P2-AA-12HAA-R)	interaction score (P2-AA-12HAA-E)	interaction score (P2-AA-12HAA-H)	interaction score (P2-AA-12HAA-S)
DEIAALEAERAALEAERAALEAEIAALEG [P1-AA-12HAA-R]	-0.753	0.85	0.326	1.45	-0.626	1.95	-1.34	1.44	0.243	1.37	0.106	1.8				
DEIAALEAETAALEAETAALEAEIAALEG [P1-AA-12HAA-T]	-1.06	0.124	1.5	1.84	1.37	1.97		1.33	1.56	1.98	1.53	2.07	1.79			
DEIAALEAEEAALEAEEAALEAEIAALEG [P1-AA-12HAA-E]	-1.42	-0.819	1.59	1.5	1.62	1.82	1.71	0.789	0.375	1.49	-0.0466	1.91				
DEIAALEAESAALEAESAALEAEIAALEG [P1-AA-12HAA-S]	-0.855		1.58	1.69	0.951	2.15	1.11	1.26	0.962	1.8	0.635	2.24		-0.4		
DEIAALEAEIAALEAEIAALEAEIAALEG [P1-AA-12HAA-I]	1.29	1.58		2.05	1.78	2.28	2	2.16	1.75	1.79	1.87	1.8			1.79	
DEIAALEAEHAALEAEHAALEAEIAALEG [P1-AA-12HAA-H]	-1.24	0.0438	-0.35	1.75	0.96	1.83	-0.0784	1.07	1.16	1.78	-0.416	1.85				
DEIAALEAEYAALEAEYAALEAEIAALEG [P1-AA-12HAA-Y]	-0.93		1.67	1.8	1.89	2.1	1.4	1.85	1.76	1.72	2.02	1.97		1.74		
DEIAALEAELAALEAELAALEAEIAALEG [P1-AA-12HAA-L]	1.26	1.74	1.84	1.68	1.6	2.35	1.7		2.1	2.38	1.68	1.49				1.59
